B1: hippocalcin(T71N) (natural protein)
chain: not shown
notes: human hippocalcin (HPCA) with the dystonia-causing mutation T71N, in pGEX-6P1; unmyristoylated; Mutation found homozygous in DYT2 dystonia patients; also called HPCA T71N; T71N mutant; source: E. coli BL21(DE3) STAR, purified (GST resin, PreScission cleavage, Superdex 200); not shown: GST, N-terminal, cleaved
B2: hippocalcin(A190T) (natural protein)
chain: not shown
notes: human hippocalcin (HPCA) with the dystonia-causing mutation A190T, in pGEX-6P1; unmyristoylated; Mutation found homozygous in DYT2 dystonia patients; also called HPCA A190T; A190T mutant; source: E. coli BL21(DE3) STAR, purified (GST resin, PreScission cleavage, Superdex 200); not shown: GST, N-terminal, cleaved

Target: the molecule itself
Assay: cross-linking; in vitro cross-link (BS3 or DSP) of purified protein in the presence of calcium; densitometry after DSP

Protein	binding result
B1	binds
B2	binds
